The source of these data is patent US20040248232.

The subject of data set [1] is APP substrate Ser-Glu-Val-Lys-Met-Asp-Ala-Glu-Phe.
In data set [2] the test system is Z★Val-Lys-Met-MCA substrate.

Peak I β-secretase endoprotease activity from bovine chromaffin vesicles, identified as bovine cathepsin L (27 kDa cysteine protease band), sequence (chain, as listed by the source): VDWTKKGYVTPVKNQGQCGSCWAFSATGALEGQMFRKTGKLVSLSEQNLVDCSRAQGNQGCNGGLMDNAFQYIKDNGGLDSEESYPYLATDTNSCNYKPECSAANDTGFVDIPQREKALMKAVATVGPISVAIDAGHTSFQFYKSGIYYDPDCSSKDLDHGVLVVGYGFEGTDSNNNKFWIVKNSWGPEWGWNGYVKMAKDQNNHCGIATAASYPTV

In the case of “Peak I β-secretase endoprotease activity from bovine chromaffin vesicles, identified as bovine cathepsin L (27 kDa cysteine protease band)”, the “cleavage of the APP substrate, products analyzed by EMS” value (“cleavage of the APP substrate” for short) in data set [1] is “the majority of Peak I activity cleaved the Lys-Met bond”. For the same substance, in data set [2], the “cleavage of the Z★Val-Lys-Met-MCA substrate, products analyzed by EMS” value is reported as “the Peak I activity cleaved the Lys-Met bond in the Z★Val-Lys-Met-MCA substrate”.
On to “Peak II-A β-secretase endoprotease activity from bovine chromaffin vesicles, identified as bovine cathepsin B (31 kDa cysteine protease band)”, for which the “cleavage of the APP substrate” value in data set [1] is “the majority of the Peaks II-A and II-B activities cleaved the Met-Asp bond”. For the same substance, in data set [2], the “fluorescent MCA released by cleavage of the substrate” value was “the majority of the endoprotease activity in Peak II-A and Peak II-B cleaved the β-secretase scissile bond”.
Take “Peak II-B β-secretase endoprotease activity from bovine chromaffin vesicles, identified as bovine cathepsin B (31 kDa cysteine protease band)”: the “cleavage of the APP substrate” value in data set [1] was “the majority of the Peaks II-A and II-B activities cleaved the Met-Asp bond”. For the same substance, the “fluorescent MCA released by cleavage of the substrate” value in data set [2] is “the majority of the endoprotease activity in Peak II-A and Peak II-B cleaved the β-secretase scissile bond”.
